Data on 17 molecules can be found in US20110053865A1 (Ablynx, published 2011).

Values joined by “and” are separate entries in the source; they are usually repeats but may differ in a detail not shown here. Equal values may be shown once.

T1: recombinant human IL-23 (p19/p40) (human, UniProt Q9NPF7 20-189; P29460 23-328)
T1 construct: Bought heterodimer (R&D Systems or eBioscience); biotinylated in the alpha-screens; also called hIL-23
T1 sequence (looked up) 1: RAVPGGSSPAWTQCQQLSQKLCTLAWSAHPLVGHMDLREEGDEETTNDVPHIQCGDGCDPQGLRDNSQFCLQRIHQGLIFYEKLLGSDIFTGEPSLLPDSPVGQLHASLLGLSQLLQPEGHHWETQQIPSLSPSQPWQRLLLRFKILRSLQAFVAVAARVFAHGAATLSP
T1 sequence (looked up) 2: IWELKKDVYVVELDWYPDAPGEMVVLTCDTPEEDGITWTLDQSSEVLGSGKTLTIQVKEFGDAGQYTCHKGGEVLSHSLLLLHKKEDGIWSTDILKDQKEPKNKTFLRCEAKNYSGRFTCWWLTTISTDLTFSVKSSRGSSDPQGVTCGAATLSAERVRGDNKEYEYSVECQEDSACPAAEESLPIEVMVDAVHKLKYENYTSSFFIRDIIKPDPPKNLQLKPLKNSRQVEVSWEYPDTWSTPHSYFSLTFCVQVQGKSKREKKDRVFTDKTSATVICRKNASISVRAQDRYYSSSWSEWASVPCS

T2: recombinant human IL-12 (human, UniProt P29459 23-219; P29460 23-328)
T2 sequence (looked up) 1: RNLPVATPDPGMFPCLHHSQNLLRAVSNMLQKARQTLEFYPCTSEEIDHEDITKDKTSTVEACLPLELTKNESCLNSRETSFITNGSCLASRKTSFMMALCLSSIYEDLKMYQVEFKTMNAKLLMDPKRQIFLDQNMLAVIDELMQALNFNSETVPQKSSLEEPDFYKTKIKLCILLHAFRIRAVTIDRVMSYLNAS
T2 sequence (looked up) 2: T1 sequence (looked up) 2

B1: P23IL-22E11 (VHH)
VHH: EVQLVESGGGLVQAGGSLRLSCAASGRTFSWSAVGWFRQAPGKEREFVAAIRWSGGSPYYADSVKDRFTISRDNAKNTVYLQMNSLRPEDTAVYLCGETSLFPTSRGSHYDTWGQGTQVTVSS
B2: P23IL3G10 (VHH)
VHH: EVQLVESGGGVVQAGESLRLSCAASGYNVKDYEMGWFRQAPGMEREFAAAISWRGSSTYYADSVKGRFTISRDNAKNTVYLQMSSLKPEDTAVYYCAAGRLYPSSRSRDYDYWGQGTQVTVSS
notes: p40+ Nanobody; c-myc, His6-tagged
B3: P23IL 84G12 (VHH)
VHH: EVQLVESGGRLVQAGGSLRLSCAASGRTFDSNPMGWFRQAPGKKREFVAIISGNGGITNYANSVKGRFTISRDNAKNTIYLQMNSLKPEDTAVYYCAASGLYGSGSVYDLMYDYWGQGTQVTVSS
notes: also called P23ILp40-PMP84G12
B4: P23IL 3F11 (VHH)
VHH: EVQLVESGGGLVQAGGSLRLSCAASGSIFSINAMGWFRQAPGKERQFVAAINWSTGSTYYSDSVKGRFTISRDNAKNTVYLQMNSLKPEDTAVYFCASGYLFPSSRGSQYDYWGQGTQVTVSS
notes: as for B2
B5: P23IL3C1 (VHH)
VHH: EVQLVESGGGSVQAGGSLRLSCKVSGIMFSDKGMGWFRQAPGKERETVAATNWSGGSTYYADSVKGRFTISRDNYKNTLHLQMASLKPEDTGIYYCAAAGDSWNSRRIEDYDYWGQGTPVTVSS
notes: p40+ Nanobody
B6: P23IL-22D7 (VHH)
VHH: EVQLVESGGGLVQAGGSLRLSCASSGRTFSIYARGWFRQAPGKEREFVAAIRSGLTTYSDSVKGRFTISRDIAKNTVFLQMNSLKSEDTAVYYCAAAVNYFTDFTDYSKRDSYDYWGQGTQVTVSS
notes: p40+ Nanobody
B7: P23IL81E10 (VHH)
VHH: EVQLVESGGGLVQAGGSLRLSCVASGRTFNTYGMGWFRQAPGKEREFVAANNWSGGATSYADSVKGRFTISRDNAKNTVFLQMNTLKPEDTAVYYCAAADRGGGWLVVRENDYDYWGQGTQVTVSS
notes: p40+ Nanobody
B8: P23IL 84A12 (VHH)
VHH: EVQLVESGGGVVQAGESLRLSCAASGRSFSDYEMGWFRQAPGTEREFVASINRRGSSTFYADSVKGRFTISRDNTKNTVYLQMSSLKPEDTAVYLCAAGWLFPSSRSRDYDYWGQGTQVTVSS
notes: as for B2
B9: P23IL 21C4 (VHH)
VHH: EVQLVESGGGLVQAGGSLRLSCAASGRTFSGYDMGWFRQAPGKEREFVAQISRHNSNTYYADAVKGRFTISRDNAKNTVSLQMNSLKPEDTAVYYCAIGSLFPSSRERDYDYWGQGTQVTVSS
notes: as for B2
B10: P23IL3B8 (VHH)
VHH: EVQLVESGGGLVQPGGSLRLSCAASGFTFSSSVMFWLRQAPGKGLEWLSTIKPTGSTIYPGSGKGRFTISRDNAKNTLYLQINNLKPEDTALYYCARDIGGTVRGQGTQVTVSS
notes: as for B2
B11: P23IL-23H3 (VHH)
VHH: EVQLVESGGGLVQAGDSLRLSCAASGRSFSNDAMGWFRQAPGKERSFVAAINWSGELTGYAGSVKGRFTISRDGVENMVFLQMNSLVPEDTGVYYCAAVEGRDYYRGAQYYDYWGQGTQVTVSS
notes: p40+ Nanobody
B12: P23IL-23E3 (VHH)
VHH: EVQLVESGGELVQAGGSLRLSCAASGSIVSISAMAWYRQAPGKQRERVATITRGGTPDYADSAKDRFTISRDNAKNTVSLQMNNLKPEDTAVYYCKAALRTPTHDYNYYDYWGQGTQVTVSS
notes: p40+ Nanobody
B13: P23IL 20F2 (VHH)
VHH: EVQLVESGGGLVQPGGSLRLSCAASGFSLDYTAIGWFRQAPGKEREVVSCFTSVPGSTYHADSVKGRFTIASDNAKNTVYLQMNDLKPEDTAVYYCATDAQTYYSGSYCGRTPQEYPYWGQGTQVTVSS
notes: p40- Nanobody
B14: P23IL119A3-35GS-81A12 (bispecific antibody)
chain: EVQLVESGGGLVQAGGSLRLSCAASGRIFSLPASGNIFNLLTIAWHRQAPGMQRELVATINSGSRTNYADSVKGRFTISRDNAQKTVYLQMNNLKPEDTAVYYCQTSGSGSPNFWGQGTQVTVSSGGGGSGGGGSGGGGSGGGGSGGGGSGGGGSGGGGSEVQLVESGGGLVQAGGSLRLSCAASGRTLSSYAMGWFRQAPGKEREFVARISQGGTAIYYADSVKGRFTISRDNAKNTVYLQMNSLKPEDTAVYYCAKDPSPYYRGSAYLLSGSYDSWGQGTQVTVSS
B15: P23IL-121A2-9GS-81G2 (bispecific antibody)
chain: EVQLVESGGGLVQAGGSLRLSCAASGSIFNFNYMGWFRQAPGKEREFVAAIRWSGSSTYYADSVKGRFTISRDDAKNTVALQMNSLKPEDTAIYYCALRKGIPYSTSDRVIKGVNDYDYWGQGTQVTVSSGGGGSGGGSEVQLVESGGGLVQPGGSLRLSCIASGLPFSTKSMGWFRQAPGKEREFVARISPGGTSRYYGDFVKGRFAISRDNAKNTTWLQMNSLKAEDTAVYYCASGERSTYIGSNYYRTNEYDYWGTGTQVTVSS
B16: P23IL119A3-9GS-81G2 (bispecific antibody)
chain: EVQLVESGGGLVQAGGSLRLSCAASGRIFSLPASGNIFNLLTIAWHRQAPGMQRELVATINSGSRTNYADSVKGRFTISRDNAQKTVYLQMNNLKPEDTAVYYCQTSGSGSPNFWGQGTQVTVSSGGGGSGGGSEVQLVESGGGLVQPGGSLRLSCIASGLPFSTKSMGWFRQAPGKEREFVARISPGGTSRYYGDFVKGRFAISRDNAKNTTWLQMNSLKAEDTAVYYCASGERSTYIGSNYYRTNEYDYWGTGTQVTVSS
B17: P23IL81A12v4 (VHH)
VHH: EVQLLESGGGLVQPGGSLRLSCAASGRTLSSYAMGWFRQAPGKGREFVSRISQGGTAIYYADSVKGRFTISRDNSKNTLYLQMNSLRPEDTAVYYCAKDPSPYYRGSAYLLSGSYDSWGQGTLVTVSS
notes: Final humanization variant of 81A12

Usually koff stands for the first-order rate constant of dissociation. As usually defined, the Kd is the free concentration of one partner at which half of the binding sites on the other are occupied at equilibrium, for simple one-to-one binding. What is called kon is the rate constant with which the complex forms. One may read the IC50 as the point on the concentration scale where inhibition reaches its midpoint.

The target of one assay is T1, recombinant human IL-23 (p19/p40). In words: SPR Biacore, hIL-23 on chip. (In general: SPR reads the build-up and loss of mass on a sensor chip optically.)
Procedure: (§1) Nanobody binding was assessed at one concentration (100 nM). Each Nanobody was injected for 4 minutes at a flow rate of 45 μl/min to allow binding to chip-bound antigen. Next, binding buffer without Nanobody was sent over the chip at the same flow rate to allow spontaneous dissociation of bound Nanobody.
For B1, the koff was determined as 0.00023 s⁻¹.

With B2, the koff turned out to be 0.00197 s⁻¹.

On to B3, for which the koff turned out to be 0.00029 s⁻¹.

For the molecule B4, the koff is 0.00146 s⁻¹.

Take B5: the off-rate constant (koff) came to 0.000294 s⁻¹.

Take B6: the koff stood at 0.00017 s⁻¹.

For the molecule B7, the koff stood at 0.00263 s⁻¹.

Regarding B8, the koff was 0.0016 s⁻¹.

Turning to B9, the koff turned out to be 0.00051 s⁻¹.

For the molecule B10, the koff was found to be 0.0035 s⁻¹.

As to B11, the koff stood at 0.0011 s⁻¹.

As for B12, the koff amounted to 0.00018 s⁻¹.

A further assay addresses T2, recombinant human IL-12. Nature of the assay: cell-based or functional assay.
B1: the “IC50, PHA blast proliferation, 1 pM hIL-12” value turned out to be 159 pM.

Consider B2, for which the “IC50, PHA blast proliferation, 1 pM hIL-12” value was 194 pM.

As to B6, the “IC50, PHA blast proliferation, 1 pM hIL-12” value is 116 pM.

Take B10: the “IC50, PHA blast proliferation, 1 pM hIL-12; nc = no complete blocking” value was 1500 pM.

As for B11, the “IC50, PHA blast proliferation, 1 pM hIL-12” value amounted to 174 pM.

Regarding B12, the “IC50, PHA blast proliferation, 1 pM hIL-12; nc = no complete blocking” value amounted to 1730 pM.

The next assay deals with T1, recombinant human IL-23 (p19/p40). In words: SPR Biacore, hIL-23 on chip. This is another data set of the same source.
Procedure: as §1
In the case of B13, the koff worked out at 0.00054 s⁻¹.

The target in a further assay is cynomolgus IL-23 (cynomolgus). Nature of the assay: cell-based or functional assay.
In the case of B14, the “IC50, splenocyte assay, 3.8 pM cIL-23” value turned out to be 5 pM.

Another assay concerns the target T1, recombinant human IL-23 (p19/p40). Nature of the assay: cell-based or functional assay.
Take B14: the “IC50, splenocyte assay, 19 pM hIL-23” value was 7 pM.

A further assay shares this target. Nature of the assay: cell-based or functional assay. This is another data set of the same source.
As for B15, the “IC50, splenocyte assay, 19 pM hIL-23” value was determined as 740 pM.

As for B16, the “IC50, splenocyte assay, 19 pM hIL-23” value was determined as 1990 pM.

The next assay shares this target. In words: SPR Biacore, hIL-23.
Regarding B17, the dissociation constant Kd was 0.33 nM, the koff worked out at 0.0002 s⁻¹ and the kon was 600000 M⁻¹ s⁻¹.

The next assay concerns the target T2, recombinant human IL-12. Nature of the assay: alpha-screen, hIL-12/IL12Rbeta1-Fc. (In general: Bead proximity is the source of the signal in Alpha formats.)
Procedure: Human IL-23R-Fc chimera and hIL12Rbeta1-Fc chimera (R&D Systems, Minneapolis, Minn., US) were coupled to acceptor beads according to manufacturer instructions (Perkin Elmer, Waltham, Mass., US).
To this mixture, the IL12Rbeta1 acceptor beads and the streptavidin donor beads were added and further incubated for 1 hour at RT.
Consider B1, for which the IC50 came out at 1.3 nM.

Turning to B2, the IC50 was determined as 0.9 nM.

As to B5, the IC50 came to 1 nM.

In the case of B6, the IC50 was found to be 1.9 nM.

Consider B7, for which the IC50 stood at 23 nM.

Consider B8, for which the half-inhibitory concentration (IC50) was found to be 0.96 nM.

Regarding B9, the IC50 was 1.63 nM.

As for B10, the IC50 is 0.35 nM.

For B11, the IC50 was 1.2 nM.

For B12, the IC50 amounted to 1.2 nM.

Another assay concerns the target T3, cynomolgus IL-23 (cynomolgus).
T3 construct: also called cyno IL-23; cIL-23
Nature of the assay: SPR Biacore, cyno IL-23 on chip.
With B1, the koff is 0.00023 s⁻¹.

Regarding B2, the koff is 0.002 s⁻¹ and 0.004 s⁻¹.

With B3, the koff worked out at 7e-05 s⁻¹.

On to B5, for which the dissociation rate constant (koff) turned out to be 5.9e-05 s⁻¹.

The molecule B6 registered a koff of 0.00023 s⁻¹.

B7: the koff was 0.00132 s⁻¹ and 0.0012 s⁻¹.

Molecule B11 registered a koff of 0.00067 s⁻¹.

On to B12, for which the off-rate (koff) was 0.0012 s⁻¹ and 0.0025 s⁻¹.

Another assay concerns the target T3, cynomolgus IL-23. Nature of the assay: cell-based or functional assay.
Regarding B1, the “IC50, mouse splenocyte assay (mIL-22)” value turned out to be 1.27 nM.

For B2, the “IC50, mouse splenocyte assay (mIL-22)” value was 9.45 nM.

Turning to B5, the “IC50, mouse splenocyte assay (mIL-22); nc = blocking not complete” value worked out at 0.517 nM.

In the case of B6, the “IC50, mouse splenocyte assay (mIL-22)” value turned out to be 0.705 nM.

For B10, the “IC50, mouse splenocyte assay (mIL-22)” value turned out to be 1.79 nM.

With B11, the “IC50, mouse splenocyte assay (mIL-22)” value is 32.5 nM.

Take B12: the “IC50, mouse splenocyte assay (mIL-22)” value was found to be 5.46 nM.

The target in another assay is T1, recombinant human IL-23 (p19/p40). In words: cell-based or functional assay. This is another data set of the same source.
Take B1: the “IC50, mouse splenocyte assay (mIL-22)” value was 0.186 nM.

Regarding B2, the “IC50, mouse splenocyte assay (mIL-22)” value is 2.33 nM.

On to B5, for which the “IC50, mouse splenocyte assay (mIL-22); nc = blocking not complete” value worked out at 0.51 nM.

In the case of B6, the “IC50, mouse splenocyte assay (mIL-22)” value stood at 0.116 nM.

B10: the “IC50, mouse splenocyte assay (mIL-22)” value stood at 0.408 nM.

Take B11: the “IC50, mouse splenocyte assay (mIL-22)” value was 0.79 nM.

Consider B12, for which the “IC50, mouse splenocyte assay (mIL-22)” value worked out at 0.935 nM.
